{"source": "IntAct's records for PubMed 16286920", "parents": {"B1": {"name": "Galectin-9 (Mus musculus), O08573-2 (parent)", "chain": "MALFSAQSPYINPIIPFTGPIQGGLQEGLQVTLQGTTKSFAQRFVVNFQNSFNGNDIAFHFNPRFEEGGYVVCNTKQNGQWGPEERKMQMPFQKGMPFELCFLVQRSEFKVMVNKKFFVQYQHRVPYHLVDTIAVSGCLKLSFITFQTQNFRPAHQAPMAQTTIHMVHSTPGQMFSTPGIPPVVYPTPAYTIPFYTPIPNGLYPSKSIMISGNVLPDATRFHINLRCGGDIAFHLNPRFNENAVVRNTQINNSWGQEERSLLGRMPFSRGQSFSVWIICEGHCFKVAVNGQHMCEYYHRLKNLQDINTLEVAGDIQLTHVQT"}}, "data": [{"variants_of": "B1", "settings": "with havr2_mouse Havcr2, Q8VIM0", "values": [{"variant": "R64A", "effect of a mutation on the interaction": "decreasing interaction strength"}, {"variant": "R64A;R238A", "effect of a mutation on the interaction": "disrupting interaction strength"}, {"variant": "R238A", "effect of a mutation on the interaction": "decreasing interaction strength"}]}]}
